Measured values from publication doi:10.1101/2022.08.20.504624 (bioRxiv, 2022).

T1: Chlamydomonas IFT81 (Chlamydomonas reinhardtii, UniProt Q68RJ5 1-683)
T1 sequence (looked up): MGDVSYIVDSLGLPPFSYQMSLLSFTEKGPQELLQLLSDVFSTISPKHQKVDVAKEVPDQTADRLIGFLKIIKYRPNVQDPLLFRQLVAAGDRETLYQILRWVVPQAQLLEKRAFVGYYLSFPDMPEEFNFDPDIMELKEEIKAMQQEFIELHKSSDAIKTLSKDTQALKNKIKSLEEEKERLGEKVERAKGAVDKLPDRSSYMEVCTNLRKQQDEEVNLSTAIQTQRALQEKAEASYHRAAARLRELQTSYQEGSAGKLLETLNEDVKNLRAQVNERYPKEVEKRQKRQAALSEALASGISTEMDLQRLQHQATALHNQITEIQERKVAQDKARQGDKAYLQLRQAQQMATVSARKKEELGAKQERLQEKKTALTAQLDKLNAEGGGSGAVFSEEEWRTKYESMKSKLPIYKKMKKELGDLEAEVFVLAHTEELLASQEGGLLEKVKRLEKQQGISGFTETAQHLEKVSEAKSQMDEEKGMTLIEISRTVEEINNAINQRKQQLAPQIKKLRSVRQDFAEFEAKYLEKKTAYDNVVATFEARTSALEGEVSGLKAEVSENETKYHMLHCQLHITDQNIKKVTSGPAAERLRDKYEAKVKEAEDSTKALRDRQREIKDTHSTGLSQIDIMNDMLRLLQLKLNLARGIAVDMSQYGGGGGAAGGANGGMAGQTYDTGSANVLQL

T2: Chlamydomonas IFT81/74_(128-C) heterodimer within the IFT-B1 nonamer (Chlamydomonas reinhardtii, UniProt Q68RJ5 1-683; Q6RCE1 128-641)
T2 sequence (looked up) 1: T1 sequence (looked up)
T2 sequence (looked up) 2: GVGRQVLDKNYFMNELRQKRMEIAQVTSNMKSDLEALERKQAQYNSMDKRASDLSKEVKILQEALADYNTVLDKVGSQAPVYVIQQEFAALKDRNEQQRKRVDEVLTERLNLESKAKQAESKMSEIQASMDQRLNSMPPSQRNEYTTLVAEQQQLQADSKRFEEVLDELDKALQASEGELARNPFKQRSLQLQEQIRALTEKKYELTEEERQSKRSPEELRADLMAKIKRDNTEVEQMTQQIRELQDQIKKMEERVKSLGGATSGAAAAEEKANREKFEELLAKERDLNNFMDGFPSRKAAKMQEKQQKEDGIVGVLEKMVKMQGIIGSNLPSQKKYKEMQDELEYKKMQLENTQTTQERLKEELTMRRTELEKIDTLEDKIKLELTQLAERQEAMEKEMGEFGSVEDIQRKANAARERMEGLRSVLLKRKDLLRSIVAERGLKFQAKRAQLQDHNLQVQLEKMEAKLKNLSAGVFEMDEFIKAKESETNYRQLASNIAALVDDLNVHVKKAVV

T3: CrIFT172_(1-968) (Chlamydomonas reinhardtii, UniProt Q5DM57 1-968)
T3 sequence (looked up): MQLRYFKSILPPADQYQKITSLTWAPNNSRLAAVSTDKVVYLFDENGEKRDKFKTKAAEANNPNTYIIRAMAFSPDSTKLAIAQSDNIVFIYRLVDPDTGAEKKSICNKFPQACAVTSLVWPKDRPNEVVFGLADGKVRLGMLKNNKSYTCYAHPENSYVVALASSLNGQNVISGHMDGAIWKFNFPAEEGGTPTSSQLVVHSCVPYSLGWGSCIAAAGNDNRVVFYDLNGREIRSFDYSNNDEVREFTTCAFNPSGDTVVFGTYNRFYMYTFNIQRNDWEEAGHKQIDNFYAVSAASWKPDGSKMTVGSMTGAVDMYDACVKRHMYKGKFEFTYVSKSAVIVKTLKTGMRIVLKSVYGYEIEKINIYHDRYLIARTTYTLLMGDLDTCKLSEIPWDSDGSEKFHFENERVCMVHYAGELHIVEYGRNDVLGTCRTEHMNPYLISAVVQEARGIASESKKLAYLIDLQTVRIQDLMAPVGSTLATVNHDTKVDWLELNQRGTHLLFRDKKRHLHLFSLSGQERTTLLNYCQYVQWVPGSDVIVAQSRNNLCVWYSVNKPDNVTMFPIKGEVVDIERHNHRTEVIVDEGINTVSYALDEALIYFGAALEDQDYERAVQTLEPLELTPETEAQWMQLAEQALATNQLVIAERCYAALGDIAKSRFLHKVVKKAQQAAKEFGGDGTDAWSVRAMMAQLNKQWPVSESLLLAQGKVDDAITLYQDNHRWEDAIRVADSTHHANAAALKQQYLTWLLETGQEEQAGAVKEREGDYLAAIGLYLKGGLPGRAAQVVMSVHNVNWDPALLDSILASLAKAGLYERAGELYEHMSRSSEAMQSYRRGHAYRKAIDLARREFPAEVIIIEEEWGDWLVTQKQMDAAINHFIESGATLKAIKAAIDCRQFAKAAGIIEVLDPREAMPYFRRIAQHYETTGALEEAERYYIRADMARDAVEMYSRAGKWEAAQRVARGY

B1: Chlamydomonas IFT74_(128-C) (domain or fragment, Chlamydomonas reinhardtii, UniProt Q6RCE1 128-641, looked up)
chain: T2 sequence (looked up) 2
B2: Chlamydomonas IFT27 (natural protein, Chlamydomonas reinhardtii)
chain: MVKKEVKPIDITATLRCKVAVVGEATVGKSALISMFTSKGSKFLKDYAMTSGVEVVVAPVTIPDTTVSVELFLLDTAGSDLYKEQISQYWNGVYYAILVFDVSSMESFESCKAWFELLKSARPDRERPLRAVLVANKTDLPPQRHQVRLDMAQDWATTNTLDFFDVSANPPGKDADAPFLSIATTFYRNYEDKVAAFQDACRNY
B3: Chlamydomonas IFT25_(1-136) (domain or fragment, Chlamydomonas reinhardtii, UniProt B8LIX8 1-136, looked up)
chain: MKDYAREENGGLVVMASCSDERFPPENMLDGKDNTFWVTTGMFPQEFVLRLESCIRVSKITTLSLNVRKLAVEKCDQDKPDQFEKVFEVELANRGDRLQTEVHQVNIRAKYLKFILLQGHGEFATVNRVSVVGGDD
B4: GST-tagged CrIFT57_(1-234) (domain or fragment, Chlamydomonas reinhardtii, UniProt Q2XQY7 1-234, looked up)
chain: MSSKRGGRSSLAKAPEEAVNGEAFAPEASPPPPGDDGDAGGEDGGAPAPPPPPATKGGPVAVGRSLEIQTTPDVCMEMLADKLKLLNYEADFCRKKKPYRKPLSRLYFAVPLANSSEQFFYFTSLATWLLGLAGVELPAPKEFDDPNLTCQNILGAVKKLGFAPPSYHPTKLTVGNGKEVVGVLDGLVDFVLERRHHKYSRPAYGNDGQPEEGVQLDDEAEAAAMEGADELAMP
B5: Chlamydomonas IFT46_(188-319) (domain or fragment, Chlamydomonas reinhardtii, UniProt A2T2X4 188-319, looked up)
chain: QLRQLSKEAPGAKADMVGRLEHTDENKAKKIQQWIASINDIHKAKPAATVNYSKRMPEIEALMQEWPPEVETFLKTMHMPSGDVELDIKTYARLVCTLLDIPVYDDPVESLHVLFTLYLEFKNNPIFRQHME

What was measured:
Chlamydomonas IFT81 = target: T1, Chlamydomonas IFT81; experiment: cross-linking
[1] = target: T2, Chlamydomonas IFT81/74_(128-C) …; experiment: cross-linking
CrIFT172_(1-968) = target: T3, CrIFT172_(1-968); experiment: pull-down
[2] = target: B1; experiment: cross-linking

| Binder | binding result (Chlamydomonas IFT81) | binding result [1] | other results |
| --- | --- | --- | --- |
| B1 | binds |  |  |
| B2 |  | binds |  |
| B3 |  | binds |  |
| B4 |  |  | binding result (CrIFT172_(1-968)): binds |
| B5 | binds |  | binding result [2]: binds |
